Measured values taken from patent publication US20090149343A1, “HISTONES” (priority 2006, published 2009).

Target: T1, micro-array bound histone H3 peptides (Homo sapiens, UniProt P68431)
T1 construct: 48 discrete histone H3 peptides containing a wide range of histone modifications at defined residues; made in house; host or cells: peptides by chemical solid phase synthesis
Test: Histone peptide microarray-based methylation assay (SET 7/9)
Assay type: biochemical
Details: 12 hrs, 30° C. methylation buffer; 100 uM, 70 ul SET 7/9; FIG. 15
Description: FIG. 15. SET 7/9 dependent methylation of micro-array bound histone peptides. Microarray slides containing duplicate arrays (dashed boxes) of 48 discrete histone H3 peptides containing a wide range of histone modifications at defined residues. These were incubated with the methyl-transferase enzyme SET7/9 (Bottom panel) or a buffer containing no enzyme (Control, top panel), and subsequently probed with an anti-H3K4me1 antibody.
Methylation assays were performed using the recombinant human histone methyl-transferase SET 7/9 under standard methylation conditions. Assays on the microarrays of the invention were performed under coverslips, enabling small volumes of reagent usage per assay (70 μl). Enzyme-mediated methylation is detected by a histone methyl specific antibody (i.e. anti-histone H3 mono-methyl K4) by standard Western blotting conditions.
Importantly, reproducible patterns of modification are generated on the different peptides (the dashed boxes contain duplicate arrays of 48 epitope spots) allowing users to analyse the effects of defined modifications on methyl transfer by the enzyme.

B1: SET 7/9: recombinant human histone methyl-transferase SET 7/9 (protein)
chain: MDSDDEMVEEAVEGHLDDDGLPHGFCTVTYSSTDRFEGNFVHGEKNGRGKFFFFDGSTLEGYYVDDALQGQGVYTYEDGGVLQGTYVDGELNGPAQEYDTDGRLIFKGQYKDNIRHGVCWIYYPDGGSLVGEVNEDGEMTGEKIAYVYPDERTALYGKFIDGEMIEGKLATLMSTEEGRPHFELMPGNSVYHFDKSTSSCISTNALLPDPYESERVYVAESLISSAGEGLFSKVAVGPNTVMSFYNGVRITHQEVDSRDWALNGNTLSLDEETVIDVPEPYNHVSKYCASLGHKANHSFTPNCIYDMFVHPRFGPIKCIRTLRAVEADEELTVAYGYDHSPPGKSGPEAPEWYQVELKAFQATQQK
enzyme-mediated methylation of array peptides detected by anti-histone H3 mono-methyl K4 antibody: specific enzymatic methyl transferase activity occurs
